Measured values as given in patent US20240018260A1 (AMUNIX PHARMACEUTICALS, published 2024).

T1: human EpCAM on EpCAM positive human carcinoma cells (SW480, SK-OV-3) (human, UniProt P16422 24-314)
T1 sequence (looked up): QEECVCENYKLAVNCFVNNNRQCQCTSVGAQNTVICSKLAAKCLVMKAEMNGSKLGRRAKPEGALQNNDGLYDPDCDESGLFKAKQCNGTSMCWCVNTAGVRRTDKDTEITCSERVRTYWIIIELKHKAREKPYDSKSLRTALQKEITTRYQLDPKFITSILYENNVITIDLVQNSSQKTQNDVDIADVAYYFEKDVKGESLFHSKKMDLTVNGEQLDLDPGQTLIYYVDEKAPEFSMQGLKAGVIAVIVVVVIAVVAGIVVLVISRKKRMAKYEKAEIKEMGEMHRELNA

B1: AC1278 His(8)-aEpCAM-aCD3-BSRS1-XTEN_AE864, protease-untreated (intact) anti-EpCAM×anti-CD3 ProTIA (bispecific antibody)
chain: HHHHHHHHELVMTQSPSSLTVTAGEKVTMSCKSSQSLLNSGNQKNYLTWYQQKPGQPPKLLIYWASTRESGVPDRFTGSGSGTDFTLTISSVQAEDLAVYYCQNDYSYPLTFGAGTKLEIKGGGGSGGGGSGGGGSEVQLLEQSGAELVRPGTSVKISCKASGYAFTNYWLGWVKQRPGHGLEWIGDIFPGSGNIHYNEKFKGKATLTADKSSSTAYMQLSSLTFEDSAVYFCARLRNWDEPMDYWGQGTTVTVSSGGGGSDVQLVQSGAEVKKPGASVKVSCKASGYTFTRYTMHWVRQAPGQGLEWIGYINPSRGYTNYADSVKGRFTITTDKSTSTAYMELSSLRSEDTATYYCARYYDDHYCLDYWGQGTTVTVSSGEGTSTGSGGSGGSGGADDIVLTQSPATLSLSPGERATLSCRASQSVSYMNWYQQKPGKAPKRWIYDTSKVASGVPARFSGSGSGTDYSLTINSLEAEDAATYYCQQWSSNPLTFGGGTKVEIKGTAEAASASGLSGRSDNHSPLGLAGSPGSPAGSPTSTEEGTSESATPESGPGTSTEPSEGSAPGSPAGSPTSTEEGTSTEPSEGSAPGTSTEPSEGSAPGTSESATPESGPGSEPATSGSETPGSEPATSGSETPGSPAGSPTSTEEGTSESATPESGPGTSTEPSEGSAPGTSTEPSEGSAPGSPAGSPTSTEEGTSTEPSEGSAPGTSTEPSEGSAPGTSESATPESGPGTSTEPSEGSAPGTSESATPESGPGSEPATSGSETPGTSTEPSEGSAPGTSTEPSEGSAPGTSESATPESGPGTSESATPESGPGSPAGSPTSTEEGTSESATPESGPGSEPATSGSETPGTSESATPESGPGTSTEPSEGSAPGTSTEPSEGSAPGTSTEPSEGSAPGTSTEPSEGSAPGTSTEPSEGSAPGTSTEPSEGSAPGSPAGSPTSTEEGTSTEPSEGSAPGTSESATPESGPGSEPATSGSETPGTSESATPESGPGSEPATSGSETPGTSESATPESGPGTSTEPSEGSAPGTSESATPESGPGSPAGSPTSTEEGSPAGSPTSTEEGSPAGSPTSTEEGTSESATPESGPGTSTEPSEGSAPGTSESATPESGPGSEPATSGSETPGTSESATPESGPGSEPATSGSETPGTSESATPESGPGTSTEPSEGSAPGSPAGSPTSTEEGTSESATPESGPGSEPATSGSETPGTSESATPESGPGSPAGSPTSTEEGSPAGSPTSTEEGTSTEPSEGSAPGTSESATPESGPGTSESATPESGPGTSESATPESGPGSEPATSGSETPGSEPATSGSETPGSPAGSPTSTEEGTSTEPSEGSAPGTSTEPSEGSAPGSEPATSGSETPGTSESATPESGPGTSTEPSEGSAPG
B2: Protease-treated (MMP-9 cleaved) AC1278, His(8)-aEpCAM-aCD3 cleaved fragment (bispecific antibody)
chain: HHHHHHHHELVMTQSPSSLTVTAGEKVTMSCKSSQSLLNSGNQKNYLTWYQQKPGQPPKLLIYWASTRESGVPDRFTGSGSGTDFTLTISSVQAEDLAVYYCQNDYSYPLTFGAGTKLEIKGGGGSGGGGSGGGGSEVQLLEQSGAELVRPGTSVKISCKASGYAFTNYWLGWVKQRPGHGLEWIGDIFPGSGNIHYNEKFKGKATLTADKSSSTAYMQLSSLTFEDSAVYFCARLRNWDEPMDYWGQGTTVTVSSGGGGSDVQLVQSGAEVKKPGASVKVSCKASGYTFTRYTMHWVRQAPGQGLEWIGYINPSRGYTNYADSVKGRFTITTDKSTSTAYMELSSLRSEDTATYYCARYYDDHYCLDYWGQGTTVTVSSGEGTSTGSGGSGGSGGADDIVLTQSPATLSLSPGERATLSCRASQSVSYMNWYQQKPGKAPKRWIYDTSKVASGVPARFSGSGSGTDYSLTINSLEAEDAATYYCQQWSSNPLTFGGGTKVEIKGTAEAASASGLSGRSDNHSPLG
B3: AC1357, non-cleavable anti-EpCAM×anti-CD3 ProTIA without the release segment (bispecific antibody)
chain: HHHHHHHHELVMTQSPSSLTVTAGEKVTMSCKSSQSLLNSGNQKNYLTWYQQKPGQPPKLLIYWASTRESGVPDRFTGSGSGTDFTLTISSVQAEDLAVYYCQNDYSYPLTFGAGTKLEIKGGGGSGGGGSGGGGSEVQLLEQSGAELVRPGTSVKISCKASGYAFTNYWLGWVKQRPGHGLEWIGDIFPGSGNIHYNEKFKGKATLTADKSSSTAYMQLSSLTFEDSAVYFCARLRNWDEPMDYWGQGTTVTVSSGGGGSDVQLVQSGAEVKKPGASVKVSCKASGYTFTRYTMHWVRQAPGQGLEWIGYINPSRGYTNYADSVKGRFTITTDKSTSTAYMELSSLRSEDTATYYCARYYDDHYCLDYWGQGTTVTVSSGEGTSTGSGGSGGSGGADDIVLTQSPATLSLSPGERATLSCRASQSVSYMNWYQQKPGKAPKRWIYDTSKVASGVPARFSGSGSGTDYSLTINSLEAEDAATYYCQQWSSNPLTFGGGTKVEIKGSPGSPAGSPTSTEEGTSESATPESGPGTSTEPSEGSAPGSPAGSPTSTEEGTSTEPSEGSAPGTSTEPSEGSAPGTSESATPESGPGSEPATSGSETPGSEPATSGSETPGSPAGSPTSTEEGTSESATPESGPGTSTEPSEGSAPGTSTEPSEGSAPGSPAGSPTSTEEGTSTEPSEGSAPGTSTEPSEGSAPGTSESATPESGPGTSTEPSEGSAPGTSESATPESGPGSEPATSGSETPGTSTEPSEGSAPGTSTEPSEGSAPGTSESATPESGPGTSESATPESGPGSPAGSPTSTEEGTSESATPESGPGSEPATSGSETPGTSESATPESGPGTSTEPSEGSAPGTSTEPSEGSAPGTSTEPSEGSAPGTSTEPSEGSAPGTSTEPSEGSAPGTSTEPSEGSAPGSPAGSPTSTEEGTSTEPSEGSAPGTSESATPESGPGSEPATSGSETPGTSESATPESGPGSEPATSGSETPGTSESATPESGPGTSTEPSEGSAPGTSESATPESGPGSPAGSPTSTEEGSPAGSPTSTEEGSPAGSPTSTEEGTSESATPESGPGTSTEPSEGSAPGTSESATPESGPGSEPATSGSETPGTSESATPESGPGSEPATSGSETPGTSESATPESGPGTSTEPSEGSAPGSPAGSPTSTEEGTSESATPESGPGSEPATSGSETPGTSESATPESGPGSPAGSPTSTEEGSPAGSPTSTEEGTSTEPSEGSAPGTSESATPESGPGTSESATPESGPGTSESATPESGPGSEPATSGSETPGSEPATSGSETPGSPAGSPTSTEEGTSTEPSEGSAPGTSTEPSEGSAPGSEPATSGSETPGTSESATPESGPGTSTEPSEGSAPG

Biological target: T1, human EpCAM on EpCAM positive human …
Assay: cell-based or functional assay

Binder | EC50, LDH release cytotoxicity, PBMC:SW480 5:1 [nM]
B1 | 0.288
B2 | 0.0089
B3 | 3.3
